According to the supplement of paper PMC9170038:

System: MS2 coat protein
Test: apparent KD of MS2 coat protein; designed switch direction (-1 OFF switch, 1 ON switch): -1; higher = weaker reporter binding
How it was run: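 Three titration conditions were used: no input, 200 uM small-molecule ligand, and an oligonucleotide input. In each, SNAP-549-labelled MS2 coat protein was raised from 0.7 or 1.5 nM, doubling, to 3 µM over designed RNA switches transcribed on Illumina chips by stalled E. coli RNA polymerase. Curve fits of normalised cluster fluorescence gave values whose per-design median over clusters is the apparent KD.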

[1] = Eterna round: R95, input ligand: FMN 200 uM
[2] = Eterna round: R95, input ligand: microRNA oligo, concentration not stated
[3] = Eterna round: R95, input ligand: none
[4] = input ligand: microRNA oligo, concentration not stated

GUGAUCUAUCAUGGGAUAAACAUGAGGAUCACCCAUGUAAACAAGUUUUUUGCUCGUCUUAUAAUAAGAUAGAUCAC [Antenna 2 - Jieux - Sensor, turn-off variant 1] (Eterna round: R97, puzzle: Sensor, turn-off variant 1)
apparent KD of MS2 coat protein (input ligand: FMN 200 uM): 21.1 nM | apparent KD of MS2 coat protein (input ligand: none): 20.9 nM

UUUAAUUUUUUUUUUUUACAAGCUUUUUGCUCGUCUUAUACAUGAGGAUCACCCAUGUGAGUGGGAGGUAAAUUAUC [JMF 77] (puzzle: Sensor v3, turn-off variant 2)
apparent KD of MS2 coat protein [1]: 57.7 nM | apparent KD of MS2 coat protein [2]: 276 nM | apparent KD of MS2 coat protein [3]: 70 nM

AAGAAGAAGUAAGGAUAUGAAGAUUUGGUGGUGACAUGAGGAUCACCCAUGUGAAAACAAUAAGAUCAGAAGGUAUAAGAAGAA [AK ExNG2-3] (Eterna round: R96, puzzle: Exclusion NG 2)
apparent KD of MS2 coat protein (input ligand: FMN 200 uM): 522 nM | apparent KD of MS2 coat protein [4]: 434 nM | apparent KD of MS2 coat protein (input ligand: none): 405 nM

UACUACGCAGGAUAUACAUGAGGAUCACCCAUGUGUCUGCGAUAGGCACGUGAAAUCCGUAGAAGGGUGUAGAU [Exclusion 3 - Oddities v.2] (puzzle: Exclusion 3)
apparent KD of MS2 coat protein [2]: 35.9 nM

GAAAAGGUAGGAUAUACGAAAAAAAAGGGUUGAAAAAAAACACAUGAGGAUCACCCAUGUAGAAGGACCAAAAG [salish99_ex2_r3_080] (puzzle: Exclusion 2)
apparent KD of MS2 coat protein [1]: 140 nM | apparent KD of MS2 coat protein [2]: 19.7 nM | apparent KD of MS2 coat protein [3]: 26 nM

ACACCACAUGAGGAUCACCCAUGUAAGGAUAUAACGCAUCCGCGUAACUGCGGGCAAGUUAGAAGGUGUAUGGG [Eternabot (L2) Solution 91] (Eterna round: R97, puzzle: Exclusion 1)
apparent KD of MS2 coat protein (input ligand: FMN 200 uM): 91.9 nM | apparent KD of MS2 coat protein (input ligand: none): 49.6 nM

CUUUUGUGAGGAUAUUGGUAGUAAAUAAAUAAAAUUACUACUGAGAAGGCACAUGAGGAUCACCCAUGUUCCUC [salish99_ex4_r3_070] (puzzle: Exclusion 4)
apparent KD of MS2 coat protein [2]: 30.7 nM

AGAUGUAGAUACCGAUCCUACAUGAGGAUCACCCAUGUAGCUAGACGUGCUCGCGUUGCUCGUCAGACUACCAGUAG [salish99_TOv1_r3_088] (puzzle: Sensor v3, turn-off variant 1)
apparent KD of MS2 coat protein [1]: 279 nM | apparent KD of MS2 coat protein [2]: 286 nM | apparent KD of MS2 coat protein [3]: 382 nM

UAUUAAGCAAGCAGAUCCCACAUGAGGAUCACCCAUGUGCUCGUCUUAUAAGGUACUGUGACAAAAGUCACGGUACC [Mat - Sensor, turn-off var - Eli Mod - D74] (Eterna round: R97, puzzle: Sensor, turn-off variant 1)
apparent KD of MS2 coat protein (input ligand: FMN 200 uM): 121 nM | apparent KD of MS2 coat protein (input ligand: none): 135 nM

UUUUAACAUGAGGAUCACCCAUGUGAGGAUAUCGAAAUUUAUAUUAAUAUUUAUUAAACGAGAAGGCACAUUUU [JMF 59] (puzzle: Exclusion 1)
apparent KD of MS2 coat protein [2]: 82 nM

UACGGGUCAGGAUAUGCGAGGGAGUGGGAAAUAGGAAGGUAGCAGAAGGGACAUGAGGAUCACCCAUGUAAGGA [JR_Exclu4_Sub0100] (puzzle: Exclusion 4)
apparent KD of MS2 coat protein [1]: 38.5 nM | apparent KD of MS2 coat protein [2]: 31.2 nM | apparent KD of MS2 coat protein [3]: 34.6 nM

UUAUACAAGCAAAGAUCCCACAUGAGGAUCACCCAUGUGCUCGUCUUAUAAGGUACUGUGACGAUAGUCACGGUACC [Mat - Sensor, turn-off var - Eli Mod - D102] (Eterna round: R97, puzzle: Sensor, turn-off variant 1)
apparent KD of MS2 coat protein (input ligand: FMN 200 uM): 38.3 nM | apparent KD of MS2 coat protein (input ligand: none): 49.9 nM

GGAUGAGGAGUGAGGAUAUCGUGUUCGAAAGAACGUGAGAAGGCACAUGAGGAUCACCCAUGUGAUCCUCAUCG [Omei Ex4B A22] (Eterna round: R97, puzzle: Brourd's mod of Exclusion 4)
apparent KD of MS2 coat protein (input ligand: FMN 200 uM): 365 nM | apparent KD of MS2 coat protein (input ligand: none): 59.6 nM

UUCACAUGGACAUAAGAUCACAUGAGGAUCACCCAUGUGAAUAACAAGCUUUUUGUUCGUCUUAUGUCCAAUAAUAG [Stov1/14-B2] (Eterna round: R97, puzzle: Sensor, turn-off variant 1)
apparent KD of MS2 coat protein (input ligand: FMN 200 uM): 13.7 nM | apparent KD of MS2 coat protein (input ligand: none): 13.5 nM

CAAAUUGCAGGAUAUACUGGGCCAGAGCCAUCGUGUAUUCCACAUGAGGAUCACCCAUGUAGAAGGGCACGUAC [Aqueran] (puzzle: Exclusion 2)
apparent KD of MS2 coat protein [2]: 23.8 nM

GUCGCUAGAGGAUAUACAAUGGUAUAUGAUCCUAGUGACAUACAUGAGGAUCACCCAUGUAGAAGGCUAGUAUU [Exclusion 2 - 8] (puzzle: Exclusion 2)
apparent KD of MS2 coat protein [2]: 23.7 nM

AAUUAGCAAGCGAGAUCCCACAUGAGGAUCACCCAUGUGCUCGUCUUAUAUAAGGUACUGUACAAAAGUACGGUACC [Mat - Sensor, turn-off var - Eli Mod - D32] (Eterna round: R97, puzzle: Sensor, turn-off variant 1)
apparent KD of MS2 coat protein (input ligand: FMN 200 uM): 14.5 nM | apparent KD of MS2 coat protein (input ligand: none): 14.1 nM

CGGCGACAUGAGGAUCACCCAUGUGAGGAUAUGACGGGAAAAGCGUGAGCAGUUUGUAUCAGAAGGCGGGUAGG [salish99_ex1_r4_080] (Eterna round: R97, puzzle: Exclusion 1)
apparent KD of MS2 coat protein (input ligand: FMN 200 uM): 37.2 nM | apparent KD of MS2 coat protein (input ligand: none): 33.6 nM

UAUUAGCAAGCGAGAUCUCACAUGAGGAUCACCCAUGUGCUCGUCUUAUAAGGUACUGUGACGAUAGUCACGGUACC [Mat - Sensor, turn-off var - Eli Mod - D38] (Eterna round: R97, puzzle: Sensor, turn-off variant 1)
apparent KD of MS2 coat protein (input ligand: FMN 200 uM): 15.3 nM | apparent KD of MS2 coat protein (input ligand: none): 14.6 nM

UAACAAAUUGUCAGGAUAUCAAUCCCGGCCCAGAUUGAGAAGGGACAUGAGGAUCACCCAUGUAUGAUUCUCAA [jl-ex4-4.51 ViennaUCT mod] (Eterna round: R97, puzzle: Brourd's mod of Exclusion 4)
apparent KD of MS2 coat protein (input ligand: FMN 200 uM): 65.4 nM | apparent KD of MS2 coat protein (input ligand: none): 31.9 nM

GGUCAAGAGCAGAUCCGCGCUGCCAUUGACCGCUCAUUUACAUGAGGAUCACCCAUGUUUUUUGCUCGUCUUACUAC [Inedsoinin] (puzzle: Sensor v3, turn-off variant 2)
apparent KD of MS2 coat protein [1]: 18.2 nM | apparent KD of MS2 coat protein [2]: 57.9 nM | apparent KD of MS2 coat protein [3]: 20.3 nM

UCAUAACAUGAGGAUCACCCAUGUCAGGAUAUGAUACUAUGUACUUCGGUACAUAGUAUCAGAAGGGACAUGCU [Brourd's Ex1-3: 12 (nt 72 G)] (puzzle: Exclusion 1)
apparent KD of MS2 coat protein [2]: 135 nM

CUGGACUGAGGAUAUUGUGCUGCUGACAUGAGGAUCACCCAUGUAUGUUAACUCGGCCGUCGAGAAGGCAGACAGG [BotMod 18 - Jieux - Exclusion 5] (Eterna round: R97, puzzle: Exclusion 5)
apparent KD of MS2 coat protein (input ligand: FMN 200 uM): 16.5 nM | apparent KD of MS2 coat protein (input ligand: none): 19.1 nM

GGAUCACAUGUGAGGAUAUGCUGGUCCUUGGAUCAGCAGAAGGCACAUGAGGAUCACCCAUGUGAUCAAGAUCC [Eli bmx4 4.78] (Eterna round: R97, puzzle: Brourd's mod of Exclusion 4)
apparent KD of MS2 coat protein (input ligand: FMN 200 uM): 22.2 nM | apparent KD of MS2 coat protein (input ligand: none): 37.1 nM

GUCUUACAUGAGGAUCACCCAUGUGAGGAUAUGGAUUCGCUGGCCGUAGCCAGUGGAUCCAGAAGGCGCAUGAU [JL-ex1-4.04] (Eterna round: R97, puzzle: Exclusion 1)
apparent KD of MS2 coat protein (input ligand: FMN 200 uM): 50.9 nM | apparent KD of MS2 coat protein (input ligand: none): 39.2 nM

AAUAACAUGUUGAUCAAAUACAUGAGGAUCACCCAUGUAAGCUUUUUGUUCGUAGAUUAACACUAAUAAUAAUAAUA [Stov1new/2-B] (Eterna round: R97, puzzle: Sensor, turn-off variant 1)
apparent KD of MS2 coat protein (input ligand: FMN 200 uM): 15.8 nM | apparent KD of MS2 coat protein (input ligand: none): 16.7 nM

ACGUGAUAUCUGUCGGUGGACAUGAGGAUCACCCAUGUAAGCUUUUUGCUUGUCUUAUAACCCGGUGACAGACCUUC [Inxeer] (Eterna round: R96, puzzle: Sensor v3, turn-off variant 1)
apparent KD of MS2 coat protein (input ligand: FMN 200 uM): 35.5 nM | apparent KD of MS2 coat protein [4]: 349 nM | apparent KD of MS2 coat protein (input ligand: none): 35.1 nM

AAACUCCCGGCAACCGGGAACAUGAGGAUCACCCAUGUGGCGUGACUCAUACGGGCUUUUUGUUCGUUUUAUUCACG [Xeisororer] (puzzle: Sensor v3, turn-off variant 1)
apparent KD of MS2 coat protein [1]: 53.4 nM | apparent KD of MS2 coat protein [2]: 27.7 nM | apparent KD of MS2 coat protein [3]: 63.6 nM

AUAAUGUCAGGAUAUCAGAAGUUUAACUUCGGUUAAACUUCUGAGAAGGGACAUGAGGAUCACCCAUGUGAUUA [E4/3-B1] (Eterna round: R97, puzzle: Exclusion 4)
apparent KD of MS2 coat protein (input ligand: FMN 200 uM): 109 nM | apparent KD of MS2 coat protein (input ligand: none): 1330 nM

GCAGCAUAGUGUAAUAACACAAUACAUGAGGAUCACCCAUGUGAGGAUAUGGACUGGAUUACAGUCCAGAAGGCACAAAGCUGC [Zipper Style 2] (Eterna round: R96, puzzle: Exclusion NG 3)
apparent KD of MS2 coat protein (input ligand: FMN 200 uM): 19.9 nM | apparent KD of MS2 coat protein [4]: 13.3 nM | apparent KD of MS2 coat protein (input ligand: none): 21.1 nM

CUGAGCUGAGGAUAUACAUGAGGAUCACCCAUGUGUUCGAGCUUGCGUACAGGCAGAUGUAGAAGGCAGUUCGG [JL-ex3-3.34 Brourd mod] (puzzle: Exclusion 3)
apparent KD of MS2 coat protein [2]: 23.8 nM

CCUGUGUAAGGAUAUGACAAUGGUAUCUUCGGAUACCAUUGUCAGAAGGUACAUGAGGAUCACCCAUGUAACAC [Ex4-3: 13] (puzzle: Exclusion 4)
apparent KD of MS2 coat protein [2]: 14.8 nM

GGUUUCGUAGGAUAUCAUCGAGUAAACAUGAGGAUCACCCAUGUGAGGUCGGCUUGCUCUUGAGAAGGAUGAAUGG [EX5 B.13] (Eterna round: R97, puzzle: Exclusion 5)
apparent KD of MS2 coat protein (input ligand: FMN 200 uM): 40.1 nM | apparent KD of MS2 coat protein (input ligand: none): 34 nM

CCGGAACAUGAGGAUCACCCAUGUCAGGAUAUGAAUAAAUCGUCGAUAGACGAUAAUCUCAGAAGGGACACCGG [Mat - Exclusion 1 - Eli Mod - D27] (Eterna round: R97, puzzle: Exclusion 1)
apparent KD of MS2 coat protein (input ligand: FMN 200 uM): 24.5 nM | apparent KD of MS2 coat protein (input ligand: none): 24.2 nM

UUAAUUUGAGGAUAUACUAUUAACCACAUGAGGAUCACCCAUGUUCUAUCAUGUAUAUGUGUAGAAGGCAGAAUGC [JR_Ex5_Sub071] (Eterna round: R97, puzzle: Exclusion 5)
apparent KD of MS2 coat protein (input ligand: FMN 200 uM): 58.1 nM | apparent KD of MS2 coat protein (input ligand: none): 50.7 nM
